Data from US20220040297A1 (Chugai, published 2022).
Where a chain is given by its changes, count along the chain named. Blank lines part the entries; values can stand above or below the binder they belong to.

Molecular target: CD3ε homodimer protein (human, UniProt P07766 23-126, limits assumed)
Experiment: SPR, immobilized CD3ε homodimer;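 also: biacore T200 surface plasmon resonance at 25 °C, antibody variants flowed as analytes over amine-coupled CD3ε homodimer on a CM4 chip, variant binding amount divided by that of GLS3000 antibody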

Sequence of CD3ε homodimer protein (P07766 23-126 limits assumed): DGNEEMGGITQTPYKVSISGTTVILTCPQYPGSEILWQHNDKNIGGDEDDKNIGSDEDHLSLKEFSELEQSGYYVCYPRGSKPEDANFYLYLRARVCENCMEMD

ratio of amounts bound (vs GLS3000): 0.97
B2: GLS3000 S56T (antibody, name in Kabat numbering, V domains shown)
VH: QVQLVESGGGVVQPGRSLRLSCAASGFTFSNAWMHWVRQAPGKGLEWVAQIKAKSNNYATYYAESVKGRFTISRDDSKNSLYLQMNSLKTEDTAVYYCRYVHYGAYYGVDAWGQGTTVTVSS
VL: DIVMTQSPLSLPVTPGEPASISCRSSQSLVHSNRNTYLHWYQQKPGQAPRLLIYKVSNRFTGVPDRFSGSGSGTDFTLKISRVEAEDVGVYYCGQGTQVPYTFGQGTKLEIK
notes: one-arm format as m2

ratio of amounts bound (vs GLS3000): 0.97
B3: GLS3000 T31I (antibody, name in Kabat numbering, V domains shown)
VH: B2 VH
VL: B2 VL with T36I, T61S
notes: one-arm format as m2

ratio of amounts bound (vs GLS3000): 0.99
B4: GLS3000 S56I (antibody, name in Kabat numbering, V domains shown)
VH: B2 VH
VL: B2 VL with T61I
notes: one-arm format as m2

ratio of amounts bound (vs GLS3000): 0.92
B5: GLS3000 S56N (antibody, name in Kabat numbering, V domains shown)
VH: B2 VH
VL: B2 VL with T61N
notes: one-arm format as m2

ratio of amounts bound (vs GLS3000): 0.23
B7: GLS3000 T31D (antibody, name in Kabat numbering, V domains shown)
VH: B2 VH
VL: B2 VL with T36D, T61S
notes: one-arm format as m2

ratio of amounts bound (vs GLS3000): 1.46
B16: GLS3000 S56K (antibody, name in Kabat numbering, V domains shown)
VH: B2 VH
VL: B2 VL with T61K
notes: one-arm format as m2

ratio of amounts bound (vs GLS3000): 0.92
B19: GLS3000 S56G (antibody, name in Kabat numbering, V domains shown)
VH: B2 VH
VL: B2 VL with T61G
notes: one-arm format as m2

ratio of amounts bound (vs GLS3000): 0.95
B23: GLS3000 S56V (antibody, name in Kabat numbering, V domains shown)
VH: B2 VH
VL: B2 VL with T61V
notes: one-arm format as m2

ratio of amounts bound (vs GLS3000): 1.05
B24: GLS3000 S56M (antibody, name in Kabat numbering, V domains shown)
VH: B2 VH
VL: B2 VL with T61M
notes: one-arm format as m2

ratio of amounts bound (vs GLS3000): 1.05
B26: GLS3000 S56H (antibody, name in Kabat numbering, V domains shown)
VH: B2 VH
VL: B2 VL with T61H
notes: one-arm format as m2

ratio of amounts bound (vs GLS3000): 1.36
B28: GLS3000 S56R (antibody, name in Kabat numbering, V domains shown)
VH: B2 VH
VL: B2 VL with T61R
notes: one-arm format as m2

ratio of amounts bound (vs GLS3000): 0.49
B29: GLS3000 T31E (antibody, name in Kabat numbering, V domains shown)
VH: B2 VH
VL: B2 VL with T36E, T61S
notes: one-arm format as m2

ratio of amounts bound (vs GLS3000): 1.46
B37: GLS3000 S56Y (antibody, name in Kabat numbering, V domains shown)
VH: B2 VH
VL: B2 VL with T61Y
notes: one-arm format as m2

ratio of amounts bound (vs GLS3000): 0.95
B38: GLS3000 S56P (antibody, name in Kabat numbering, V domains shown)
VH: B2 VH
VL: B2 VL with T61P
notes: one-arm format as m2

ratio of amounts bound (vs GLS3000): 1.38
B40: GLS3000 S56W (antibody, name in Kabat numbering, V domains shown)
VH: B2 VH
VL: B2 VL with T61W
notes: one-arm format as m2

ratio of amounts bound (vs GLS3000): 1.04
B42: GLS3000 S56Q (antibody, name in Kabat numbering, V domains shown)
VH: B2 VH
VL: B2 VL with T61Q
notes: one-arm format as m2

ratio of amounts bound (vs GLS3000): 1.02
B43: GLS3000 S56L (antibody, name in Kabat numbering, V domains shown)
VH: B2 VH
VL: B2 VL with T61L
notes: one-arm format as m2

The remaining lines, values behind:

B1: GLS3000 S27aN (antibody, name in Kabat numbering, V domains shown)
VH: B2 VH
VL: B2 VL with S28N, T61S
notes: one-arm format as m2
ratio of amounts bound (vs GLS3000): 1.1

B6: GLS3000 S52Y (antibody, name in Kabat numbering, V domains shown)
VH: B2 VH
VL: B2 VL with S57Y, T61S
notes: one-arm format as m2
ratio of amounts bound (vs GLS3000): 1.12

B8: GLS3000 S52D (antibody, name in Kabat numbering, V domains shown)
VH: B2 VH
VL: B2 VL with S57D, T61S
notes: one-arm format as m2
ratio of amounts bound (vs GLS3000): 0.63

B9: GLS3000 S27eM (antibody, name in Kabat numbering, V domains shown)
VH: B2 VH
VL: B2 VL with S32M, T61S
notes: one-arm format as m2
ratio of amounts bound (vs GLS3000): 1.23

B10: GLS3000 S52A (antibody, name in Kabat numbering, V domains shown)
VH: B2 VH
VL: B2 VL with S57A, T61S
notes: one-arm format as m2
ratio of amounts bound (vs GLS3000): 0.93

B11: GLS3000 S27eI (antibody, name in Kabat numbering, V domains shown)
VH: B2 VH
VL: B2 VL with S32I, T61S
notes: one-arm format as m2
ratio of amounts bound (vs GLS3000): 1.07

B12: GLS3000 S27eR (antibody, name in Kabat numbering, V domains shown)
VH: B2 VH
VL: B2 VL with S32R, T61S
notes: one-arm format as m2
ratio of amounts bound (vs GLS3000): 1.58

B13: GLS3000 S27eG (antibody, name in Kabat numbering, V domains shown)
VH: B2 VH
VL: B2 VL with S32G, T61S
notes: one-arm format as m2
ratio of amounts bound (vs GLS3000): 1.04

B14: GLS3000 S56F (antibody, name in Kabat numbering, V domains shown)
VH: B2 VH
VL: B2 VL with T61F
notes: one-arm format as m2
ratio of amounts bound (vs GLS3000): 1.32

B15: GLS3000 S27eV (antibody, name in Kabat numbering, V domains shown)
VH: B2 VH
VL: B2 VL with S32V, T61S
notes: one-arm format as m2
ratio of amounts bound (vs GLS3000): 1.08

B17: GLS3000 S27eE (antibody, name in Kabat numbering, V domains shown)
VH: B2 VH
VL: B2 VL with S32E, T61S
notes: one-arm format as m2
ratio of amounts bound (vs GLS3000): 0.76

B18: GLS3000 S27eH (antibody, name in Kabat numbering, V domains shown)
VH: B2 VH
VL: B2 VL with S32H, T61S
notes: one-arm format as m2
ratio of amounts bound (vs GLS3000): 1.23

B20: GLS3000 S52Q (antibody, name in Kabat numbering, V domains shown)
VH: B2 VH
VL: B2 VL with S57Q, T61S
notes: one-arm format as m2
ratio of amounts bound (vs GLS3000): 1.05

B21: GLS3000 S27eL (antibody, name in Kabat numbering, V domains shown)
VH: B2 VH
VL: B2 VL with S32L, T61S
notes: one-arm format as m2
ratio of amounts bound (vs GLS3000): 1.17

B22: GLS3000 S27eK (antibody, name in Kabat numbering, V domains shown)
VH: B2 VH
VL: B2 VL with S32K, T61S
notes: one-arm format as m2
ratio of amounts bound (vs GLS3000): 1.59

B25: GLS3000 S52P (antibody, name in Kabat numbering, V domains shown)
VH: B2 VH
VL: B2 VL with S57P, T61S
notes: one-arm format as m2
ratio of amounts bound (vs GLS3000): 0.33

B27: GLS3000 S27eN (antibody, name in Kabat numbering, V domains shown)
VH: B2 VH
VL: B2 VL with S32N, T61S
notes: one-arm format as m2
ratio of amounts bound (vs GLS3000): 1.16

B30: GLS3000 S27eQ (antibody, name in Kabat numbering, V domains shown)
VH: B2 VH
VL: B2 VL with S32Q, T61S
notes: one-arm format as m2
ratio of amounts bound (vs GLS3000): 1.1

B31: GLS3000 S56A (antibody, name in Kabat numbering, V domains shown)
VH: B2 VH
VL: B2 VL with T61A
notes: one-arm format as m2
ratio of amounts bound (vs GLS3000): 1.16

B32: GLS3000 S27eY (antibody, name in Kabat numbering, V domains shown)
VH: B2 VH
VL: B2 VL with S32Y, T61S
notes: one-arm format as m2
ratio of amounts bound (vs GLS3000): 1.2

B33: GLS3000 S27aY (antibody, name in Kabat numbering, V domains shown)
VH: B2 VH
VL: B2 VL with S28Y, T61S
notes: one-arm format as m2
ratio of amounts bound (vs GLS3000): 1.1

B34: GLS3000 S27eP (antibody, name in Kabat numbering, V domains shown)
VH: B2 VH
VL: B2 VL with S32P, T61S
notes: one-arm format as m2
ratio of amounts bound (vs GLS3000): 1.26

B35: GLS3000 S27eF (antibody, name in Kabat numbering, V domains shown)
VH: B2 VH
VL: B2 VL with S32F, T61S
notes: one-arm format as m2
ratio of amounts bound (vs GLS3000): 1.32

B36: GLS3000 S27eW (antibody, name in Kabat numbering, V domains shown)
VH: B2 VH
VL: B2 VL with S32W, T61S
notes: one-arm format as m2
ratio of amounts bound (vs GLS3000): 1.55

B39: GLS3000 S27eT (antibody, name in Kabat numbering, V domains shown)
VH: B2 VH
VL: B2 VL with S32T, T61S
notes: one-arm format as m2
ratio of amounts bound (vs GLS3000): 0.97

B41: GLS3000 S27aP (antibody, name in Kabat numbering, V domains shown)
VH: B2 VH
VL: B2 VL with S28P, T61S
notes: one-arm format as m2
ratio of amounts bound (vs GLS3000): 0.99

B44: GLS3000 S27eD (antibody, name in Kabat numbering, V domains shown)
VH: B2 VH
VL: B2 VL with S32D, T61S
notes: one-arm format as m2
ratio of amounts bound (vs GLS3000): 0.69

B45: GLS3000 S56D (antibody, name in Kabat numbering, V domains shown)
VH: B2 VH
VL: B2 VL with T61D
notes: one-arm format as m2
ratio of amounts bound (vs GLS3000): 0.77

B46: GLS3000 S56E (antibody, name in Kabat numbering, V domains shown)
VH: B2 VH
VL: B2 VL with T61E
notes: one-arm format as m2
ratio of amounts bound (vs GLS3000): 0.71
